The chains are these.
B1: hu16G7VHv2b/hu16G7VLv2 (antibody, V domains shown)
VH: EVQLVQSGAEVVKPGASVKVSCKASGYTFTSSWIHWVRQRPGQGLEWIGEIYPNSGNTNYNEKFKGRVTLTRDISISTAYMELSRLTSDDTAVYYCARLGWLIPLDYWGQGTTVTVSS
VL: DIVLTQSPSSLAVSVGERATISCKSSQSLLDGNDQKNYLAWYQQKPGQSPKLLIYWASTRESGVPDRFSGSGSGTDFTLTISSLQAEDVAVYYCQQFYDYPWTFGGGTKLEIKR
B2: hu16G7VHv7/hu16G7VLv2 (antibody, V domains shown)
VH: B1 VH with S7P, V12K, R40A, I48M, L70M, R72V, T87R
VL: B1 VL
B3: chimeric 16G7 antibody (antibody, V domains shown)
VH: QVQLQQPGSVLVRPGASVKLSCKASGYTFTSSWIHWAKQRPGQGLEWIGEIYPNSGNTNYNEKFKGKATLTVDISSSTAYVDLTSLTSEDSAVYYCARLGWLIPLDYWGQGTTLIVSS
VL: B1 VL with T5S, R18K, A19V, I21M, I54M, S69T, Q85K, V89L
B4: hu16G7VHv2a/hu16G7VLv2 (antibody, V domains shown)
VH: B1 VH with R67K, V68A, R72V
VL: B1 VL

Residue numbers refer to the chain shown, from its start.

Broadly, the Kd is a measure of binding affinity in units of concentration.

Chain of recombinant human tau (P10636 other isoform, or with tags, fused parts or gaps): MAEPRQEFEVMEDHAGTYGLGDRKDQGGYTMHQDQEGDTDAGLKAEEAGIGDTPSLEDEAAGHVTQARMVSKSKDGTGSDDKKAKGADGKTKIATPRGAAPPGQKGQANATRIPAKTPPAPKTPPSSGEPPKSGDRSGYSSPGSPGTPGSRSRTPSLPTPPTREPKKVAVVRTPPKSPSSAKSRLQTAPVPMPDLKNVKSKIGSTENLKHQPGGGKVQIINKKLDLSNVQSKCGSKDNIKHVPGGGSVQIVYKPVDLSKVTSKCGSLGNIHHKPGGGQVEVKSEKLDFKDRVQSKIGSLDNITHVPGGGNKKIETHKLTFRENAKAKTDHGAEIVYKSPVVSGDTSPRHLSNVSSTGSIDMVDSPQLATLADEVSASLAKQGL

This experiment has as its target recombinant human tau (human, UniProt P10636 1-383). The experiment in a line: SPR. A general note: SPR reads the build-up and loss of mass on a sensor chip optically.
Take B1: the Kd was 303 pM.
For B2 the value was 293 pM.
For B3 the value was 187 pM.
The result for B4 reads 277 pM.

The values above are taken from patent US20190330316A1 (published 2019).
